The values below come from patent publication US20260167721A1 (ABLEXIS, published 2026).

Assay [1] deals with T1, human CD3 (TCR/CD3 complex on the cell surface) (human, UniProt P07766 23-207; P04234 22-171; P09693 23-182).
T1 construct: whole, on cells; Native CD3 on human Pan-T cells or Jurkat wild-type cells; also called CD3 on Pan-T cells; CD3 on Jurkat WT cells
Kind of assay: flow cytometry, Pan-T cells, 10 ug/mL.

Assay [2] addresses T1, human CD3 (TCR/CD3 complex on the cell …). Kind of assay: flow cytometry, Jurkat WT gMFI over Jurkat KO gMFI, 1 ug/mL.
Assay [3] shares this target. Kind of assay: flow cytometry, Jurkat WT gMFI over Jurkat KO gMFI, 10 ug/mL.
Assay [4] has the same target. Kind of assay: flow cytometry, Jurkat WT cells, 10 ug/mL. In general terms: A flow cytometer gives signals particle by particle.
The target is the same in assay [5]. Kind of assay: flow cytometry, Jurkat WT cells, 1 ug/mL.
The target is the same in assay [6]. Description: flow cytometry, Pan-T cells, 1 ug/mL.

T1 sequence (P07766 23-207, chain 1 of 3): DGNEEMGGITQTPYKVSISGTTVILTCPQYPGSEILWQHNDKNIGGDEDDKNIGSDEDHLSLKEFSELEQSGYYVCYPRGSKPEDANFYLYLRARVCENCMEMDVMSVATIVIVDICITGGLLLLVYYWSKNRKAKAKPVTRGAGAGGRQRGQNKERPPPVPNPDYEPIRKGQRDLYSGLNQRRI
T1 sequence (P04234 22-171, chain 2 of 3): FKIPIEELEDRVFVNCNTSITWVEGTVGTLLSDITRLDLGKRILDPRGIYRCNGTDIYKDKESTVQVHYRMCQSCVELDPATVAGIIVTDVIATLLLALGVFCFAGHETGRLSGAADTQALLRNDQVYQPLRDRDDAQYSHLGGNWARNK
T1 sequence (P09693 23-182, chain 3 of 3): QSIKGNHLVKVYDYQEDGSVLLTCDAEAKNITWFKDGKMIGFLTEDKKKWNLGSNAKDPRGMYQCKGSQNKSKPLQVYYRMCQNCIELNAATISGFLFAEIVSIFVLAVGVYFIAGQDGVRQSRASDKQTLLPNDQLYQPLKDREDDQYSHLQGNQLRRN

B1: CD3 × CD33-BspAb84 (bispecific antibody)
scFv-Fc: EVQVAESGGGLVKPGGSLRLSCAASGFTFSRYSMNWVRQAPGKCLEWVSSISSSGSYTYYADSVKGRFTISRDNAKNSLYLQMNSLRAEDTAVYYCVRERGKGAGMDVWGQGTTVTVSSGGGGSGGGGSGGGGSGGGGSNFMLTQPHSVSESPGKTVTISCTRSSGSIASNYVQWYQQRPGSSPTTVIYEDNQRPSGVPDRFSGSIDSSSNSASLTISGLKTEDEADYYCQSYDSSNRVFGCGTKLTVLGGGGSDKTHTCPPCPAPEFEGGPSVFLFPPKPKDTLMISRTPEVTCVVVDVSHEDPEVKFNWYVDGVEVHNAKTKPREEQYNSTYRVVSVLTVLHQDWLNGKEYKCKVSNKALPASIEKTISKAKGQPREPQVYTLPPCREEMTKNQVSLWCLVKGFYPSDIAVEWESNGQPENNYKTTPPVLDSDGSFFLYSKLTVDKSRWQQGNVFSCSVMHEALHNHYTQKSLSLSPGK
heavy: EVQLVQSGAEVKKPGSSVKVSCKASGYTITDSNIHWVRQAPGQSLEWIGYIYPYNGGTDYNQKFKNRATLTVDNPTNTAYMELSSLRSEDTAFYYCVNGNPWLAYWGQGTLVTVSSASTKGPSVFPLAPSSKSTSGGTAALGCLVKDYFPEPVTVSWNSGALTSGVHTFPAVLQSSGLYSLSSVVTVPSSSLGTQTYICNVNHKPSNTKVDKRVEPKSCDKTHTCPPCPAPEFEGGPSVFLFPPKPKDTLMISRTPEVTCVVVDVSHEDPEVKFNWYVDGVEVHNAKTKPREEQYNSTYRVVSVLTVLHQDWLNGKEYKCKVSNKALPASIEKTISKAKGQPREPQVCTLPPSREEMTKNQVSLSCAVKGFYPSDIAVEWESNGQPENNYKTTPPVLDSDGSFFLVSKLTVDKSRWQQGNVFSCSVMHEALHNRFTQKSLSLSPGK
light: DIQLTQSPSTLSASVGDRVTITCRASESLDNYGIRFLTWFQQKPGKAPKLLMYAASNQGSGVPSRFSGSGSGTEFTLTISSLQPDDFATYYCQQTKEVPWSFGQGTKVEVKRTVAAPSVFIFPPSDEQLKSGTASVVCLLNNFYPREAKVQWKVDNALQSGNSQESVTEQDSKDSTYSLSSTLTLSKADYEKHKVYACEVTHQGLSSPVTKSFNRGEC
notes: KiH heterodimer
As for B1, the “% Positive” value in assay [1] and in assay [6] was 99.9% each time. Besides, the gMFI turned out to be 362000 gMFI in assay [1], 51000 gMFI in assay [4], 35200 gMFI in assay [5] and 173000 gMFI in assay [6]. Further, the “Jurkat WT/KO (Fold)” value stood at 10.8 fold in assay [2] and 13.9 fold in assay [3].

B2: CD3 × CD33-BspAb85 (bispecific antibody)
scFv-Fc: EVQLVESGGGLVKPGGSLRLSCAASGFTFSSYSMNWVRQAPGKCLEWVSSISRSSGYIFYADSVKGRFTISRDNAKNSLYLQMNSLRAEDTAVYYCVRERVGAGFDYWGQGTLVTVSSGGGGSGGGGSGGGGSGGGGSNFMLTQPHSVSESPGKTVAISCTRSSGSIASNYVQWYQQRPGSSPTAVIYEDNQRPSGVPDRFSGSIDSSSNSAFLTISGLKTEDEADYYCQSYDSSNRVFGCGTKLTVLGGGGSDKTHTCPPCPAPEFEGGPSVFLFPPKPKDTLMISRTPEVTCVVVDVSHEDPEVKFNWYVDGVEVHNAKTKPREEQYNSTYRVVSVLTVLHQDWLNGKEYKCKVSNKALPASIEKTISKAKGQPREPQVYTLPPCREEMTKNQVSLWCLVKGFYPSDIAVEWESNGQPENNYKTTPPVLDSDGSFFLYSKLTVDKSRWQQGNVFSCSVMHEALHNHYTQKSLSLSPGK
heavy: B1 heavy
light: B1 light
notes: KiH heterodimer
For the molecule B2, the “% Positive” value in assay [1] came to 99.7%; in assay [6], 99.4%. Besides, the gMFI in assay [1] is 249000 gMFI; in assay [4], 32000 gMFI; in assay [5], 18900 gMFI; in assay [6], 96000 gMFI. Also, the entries for the “Jurkat WT/KO (Fold)” value in assay [2] and in assay [3] were 6.2 fold and 9.9 fold, respectively.
